Reference: patent US20070243198A1 (ERA BIOTECH S A, published 2007)

Experiments:
[1] = target: human EGF receptor on MDA-MB231 breast cancer cells (human) (UniProt P00533); assay: cell-based or functional assay
[2] = target: T1, hGH binding protein provided by the kit (Active Bioactive Human Growth Hormone ELISA DSL-10-11100, Diagnostic … (UniProt P10912 19-256)); assay: bioactivity ELISA based on binding to the kit's hGH binding protein (DSL-10-11100)
T1 sequence (looked up): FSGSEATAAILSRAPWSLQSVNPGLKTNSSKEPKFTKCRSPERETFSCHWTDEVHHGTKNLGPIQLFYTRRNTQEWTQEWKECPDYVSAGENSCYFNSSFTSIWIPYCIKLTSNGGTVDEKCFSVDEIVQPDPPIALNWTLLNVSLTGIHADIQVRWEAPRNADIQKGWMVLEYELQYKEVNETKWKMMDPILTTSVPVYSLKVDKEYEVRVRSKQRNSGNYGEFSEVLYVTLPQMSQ

RX3-EGF fusion protein showed a % proliferation with respect to Deprived cells (Mean), radioactive thymidine incorporation, 1.2 ng/mL [1] of 146%.

B1: RX3 protein without a fusion partner (other)
chain: THTSGGCGCQPPPPVHLPPPVHLPPPVHLPPPVHLPPPVHLPPPVHLPPPVHVPPPVHLPPPPCHYPTQPPRPQPHPQPHPCPCQQPHPSPCQY
notes: also called control RX3 RPBLA preparations; isolated RX3 protein
B1: no binding [2].
